These results are taken from patent US20180086836A1 (GLENMARK PHARMACEUTICALS S A, published 2018).

For test [1], the target named is T1, recombinant human N-terminal CCR6 Fc (human).
T1 construct: also called human CCR6-Fc; hsCCR6-Nter-Fc
The test is described as follows: SPR, human CCR6 N-terminal peptide Fc on the chip, FAB as analyte. A general note: In SPR one partner is held on a chip, and binding of the other changes the refractive index at the surface.

In test [2] the target is T2, recombinant cynomologus N-terminal CCR6 peptide Fc (cynomolgus monkey; human).
T2 construct: It differs from the human construct only in the CCR6 N-terminus; also called Cyno CCR6-Fc; cynoCCR6-Nter-Fc
The experiment in a line: SPR, cynomolgus CCR6 N-terminal Fc fusion coupled on the sensor chip, FAB as analyte.

Test [3] has as its target T1, recombinant human N-terminal CCR6 Fc. The test is described as follows: SPR, FAB as analyte, fusion protein coupled onto the sensor chip.
The target is the same in test [4]. The test is described as follows: SPR, human CCR6 N-terminal Fc fusion coupled on the sensor chip, FAB as analyte.
Test [5] addresses T2, recombinant cynomologus N-terminal CCR6 …. The experiment in a line: SPR, FAB as analyte, fusion protein coupled onto the sensor chip.
Test [6] shares this target. The experiment in a line: direct ELISA, Fc fusion coated at 2 µg/ml, anti-human F(ab')2-HRP. The procedure: (§1) FIG. 8: Direct binding ELISA on immobilized recombinant human N-terminal CCR6 Fc. Binding of humanized 4H11 H5L1 antibody on human N terminus fragment of CCR6 was measured by direct ELISA. Various concentrations (ranging from 10 to 0.00006 μg/ml) of humanized 4H11 H5L1 in IgG1 and IgG4HS backbones were incubated with 2 μg/ml of either recombinant human N terCCR6-Fc tagged protein (FIG. 8A) or recombinant cynomologus N-terminal peptide Fc (FIG. 8B), coated overnight at 4° C. in a 96-well plate. Binding of humanized 4H11 H5L1 antibody to Nter CCR6-Fc protein was detected by horseradish peroxidase (HRP)-conjugated anti-human (Fab)′2-specific antibody.
(§2) A binding ELISA was performed to test the reactivity of 4H11 VH5/VL1 IgG1 and 4H11 VH5/VL1 IgG4HS antibodies on peptides consisting of the N-terminal region of CCR6 from human and cynomologus species. Briefly, 96 well-microtiter plates (Costar USA, distributor VWR AG, Nyon, Switzerland) were coated with 100 μl of recombinant human and cynomologus N-terminus peptide-Fc at 2 μg/ml in PBS. Plates were incubated overnight at 4° C. and were then blocked with PBS 2% BSA (Bovine Serum Albumine, PAA Laboratories, Pasching, Austria) at room temperature (RT) for one hour. The blocking solution was removed and various concentrations of 4H11 VH5/VL1 IgG1 and 4H11 VH5/VL1 IgG4HS were added. The plates were incubated at RT for 1 hour, then washed six times with PBS 0.01% Tween-20 (Sigma-Aldrich Chemie GmbH, Buchs, Switzerland) and a goat-anti human Ig F(ab′)2 fragment specific-HRP (Jackson ImmunoResearch Europe Ltd, Newmarket, UK). After washing, the plates were incubated with TMB substrate (Bio-Rad Laboratories AG, Reinach, Switzerland) to reveal antibody binding. The reaction was stopped by adding 2M H₂SO₄ and the optical density was read at 450 nm (OD 450 nm) on a Synergy HT2 spectrophotometer (Biotek, USA; distributor: WITTEC AG, Littau, Switzerland).
A general note: ELISA stands for enzyme-linked immunosorbent assay.

Test [7] concerns the target T1, recombinant human N-terminal CCR6 Fc. The description is as above. On the procedure: as §1, §2
Test [8] shares this target. The experiment in a line: SPR (Biacore) off-rate ranking of scFv on the human CCR6 N-terminal Fc fusion.
The target in another test is T3, human CCR6 (human, UniProt P51684 1-374).
T3 construct: Full length human CCR6 on transfected BAF or CHO cells, or native on human PBMCs; also called hsCCR6; CCR6 receptor
T3 sequence: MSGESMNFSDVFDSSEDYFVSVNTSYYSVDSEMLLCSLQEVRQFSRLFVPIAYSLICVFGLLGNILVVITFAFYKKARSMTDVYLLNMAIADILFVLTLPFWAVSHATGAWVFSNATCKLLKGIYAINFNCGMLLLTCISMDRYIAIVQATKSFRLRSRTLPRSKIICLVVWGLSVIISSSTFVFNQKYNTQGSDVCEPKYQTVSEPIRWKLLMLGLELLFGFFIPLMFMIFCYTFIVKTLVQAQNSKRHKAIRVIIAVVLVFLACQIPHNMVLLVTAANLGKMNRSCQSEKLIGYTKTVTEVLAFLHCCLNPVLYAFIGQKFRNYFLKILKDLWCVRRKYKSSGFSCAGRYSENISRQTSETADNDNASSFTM
The test is described as follows: flow cytometry on BAF cells transfected with human CCR6, hybridoma supernatant, anti-mouse IgG-PE. On the procedure: Antibody titers, specificity and production by hybridomas and recombinant antibody candidates were determined by flow cytometry. Briefly, BAF cells transfected with human CCR6 (Generation of these transfected cells is detailed in example 1) were cultured and 2×10⁵ cells were distributed in a 96 well V bottom plate (TPP, Trasadingen, Switzerland), and centrifuged for three minutes at 1300 rpm; supernatants were discarded, cells were collected and analyzed by flow cytometry as described below. Cells were resuspended in 50 μl of hybridoma supernatant or in 50 μl of FACS buffer (PBS, 2% FBS, 10% Versene (Invitrogen, USA)) with 5 μg/mL of isotype control or commercial mouse anti-human CCR6 antibody (clone 11A9, BD Biosciences, Allschwil, Switzerland). Cells were incubated for 30 minutes on ice, washed two times and resuspended in 50 μl of FACS buffer. An anti-mouse IgG-Phycoerithrin-PE (BD Biosciences, Allschwil, Switzerland) diluted 1/200 was used to detect CCR6-specific mouse hybridoma and the isotype control antibody. Cells were incubated for 15 minutes on ice, washed once, resuspended in 400 μl of FACS buffer and analyzed on the FACS instrument (Cyan, Beckman Coulter International S.A., Nyon, Switzerland).
A general note: In flow cytometry, cells or beads pass a laser one at a time.

B1: VH5/VL1 L1-N28T FAB (Fab, V domains shown)
VH: EVQLVESGGGLVQPGGSLRLSCAASGFSFSDYYMYWVRQAPGKGLEWVSYITNGGITYYPDSVKGRFTISRDNSKNTLYLQMNSLRAEDTAVYYCTSPLRGAWFAYWGQGTLVTVSS
VL: DVVMTQSPLSLPVTLGQPASISCRSSQSIVHSTGNTYLEWYQQRPGQSPRLLIYKVSNRFSGVPDRFSGSGSGTDFTLKISRVEAEDVGVYYCFQGSHVPLTFGQGTKLEIKR
notes: CDR-L1 deamidation-site variant; copies: 1 + 1
Turning to B1, the binding result in test [1] is “binds”.

B2: VH5/VL1 FAB (parental) (Fab, V domains shown)
VH: EVQLVESGGGLVQPGGSLRLSCAASGFSFSDYYMYWVRQAPGKGLEWVSYITNGGITYYPDSVKGRFTISRDNSKNTLYLQMNSLRAEDTAVYYCTSPLRGAWFAYWGQGTLVTVSS
VL: DVVMTQSPLSLPVTLGQPASISCRSSQSIVHSNGNTYLEWYQQRPGQSPRLLIYKVSNRFSGVPDRFSGSGSGTDFTLKISRVEAEDVGVYYCFQGSHVPLTFGQGTKLEIK
notes: Human FAB fragment; also called parental FAB; parental VH5/VL1 FAB
A word on the Kd: it is the constant that tells how readily two partners part at equilibrium. Take B2: in test [2], the equilibrium dissociation constant (Kd) amounted to 33.6 nM.

B3: VH5/VL1-C9-G29A FAB (Fab, V domains shown)
VH: EVQLVESGGGLVQPGGSLRLSCAASGFSFSDYYMYWVRQAPGKGLEWVSYITNGGITYYPDSVKGRFTISRDNSKNTLYLQMNSLRAEDTAVYYCTSPLRGAWFAYWGQGTLVTVSS
VL: DVVMTQSPLSLPVTLGQPASISCRSSQSIVHSNANTYLEWYQQRPGQSPRLLIYKVSNRFSGVPDRFSGSGSGTDFTLKISRVEAEDVGVYYCFQGTYYPLTFGQGTKLEIK
In the case of B3, the dissociation constant (Kd) turned out to be 2.79 nM in test [2] and 1.28 nM in test [4]. In addition, in test [3], the “fold improvement in KD value compared to the parental FAB” value was roughly 20 fold.

B4: VH5/VL1-B3C9-G29A FAB (Fab, name in Kabat numbering, V domains shown)
VH: EVQLVESGGGLVQPGGSLRLSCAASGFSFSDYYMYWVRQAPGKGLEWVSYITTGGRTYYPDSVKGRFTISRDNSKNTLYLQMNSLRAEDTAVYYCTSPLRGAWFAYWGQGTLVTVSS
VL: DVVMTQSPLSLPVTLGQPASISCRSSQSIVHSNANTYLEWYQQRPGQSPRLLIYKVSNRFSGVPDRFSGSGSGTDFTLKISRVEAEDVGVYYCFQGTYYPLTFGQGTKLEIK
Consider B4, for which the Kd in [2] is 1.23 nM; in test [5], roughly 1 nM; in test [3] it was roughly 0.5 nM; in test [4], 0.544 nM. Also, the “fold improvement in affinity compared to the parental VH5/VL1 FAB” value in test [5] is roughly 30 fold; in test [3], roughly 40 fold. The “fold improvement in KD value over the first pair of FAB constructs” value in [3] was determined as 2 fold.

B5: VH5/VL1-G8-G29A FAB (Fab, V domains shown)
VH: EVQLVESGGGLVQPGGSLRLSCAASGFSFSDYYMYWVRQAPGKGLEWVSYITNGGITYYPDSVKGRFTISRDNSKNTLYLQMNSLRAEDTAVYYCTSPLRGAWFAYWGQGTLVTVSS
VL: DVVMTQSPLSLPVTLGQPASISCRSSQSIVHSNANTYLEWYQQRPGQSPRLLIYKVSNRFSGVPDRFSGSGSGTDFTLKISRVEAEDVGVYYCFQGTYLPLTFGQGTKLEIK
As to B5, the figures for the Kd in test [2] and in test [4] were 2.19 nM and 1 nM, respectively. Also, in [3], the “fold improvement in KD value compared to the parental FAB” value is roughly 20 fold.

B6: VH5/VL1 L1-N28S FAB (Fab, V domains shown)
VH: EVQLVESGGGLVQPGGSLRLSCAASGFSFSDYYMYWVRQAPGKGLEWVSYITNGGITYYPDSVKGRFTISRDNSKNTLYLQMNSLRAEDTAVYYCTSPLRGAWFAYWGQGTLVTVSS
VL: DVVMTQSPLSLPVTLGQPASISCRSSQSIVHSSGNTYLEWYQQRPGQSPRLLIYKVSNRFSGVPDRFSGSGSGTDFTLKISRVEAEDVGVYYCFQGSHVPLTFGQGTKLEIKR
notes: as for B1
Regarding B6, the binding result in test [1] was “binds”.

B7: VH5/VL1-B3G8-G29A FAB (Fab, name in Kabat numbering, V domains shown)
VH: EVQLVESGGGLVQPGGSLRLSCAASGFSFSDYYMYWVRQAPGKGLEWVSYITTGGRTYYPDSVKGRFTISRDNSKNTLYLQMNSLRAEDTAVYYCTSPLRGAWFAYWGQGTLVTVSS
VL: DVVMTQSPLSLPVTLGQPASISCRSSQSIVHSNANTYLEWYQQRPGQSPRLLIYKVSNRFSGVPDRFSGSGSGTDFTLKISRVEAEDVGVYYCFQGTYLPLTFGQGTKLEIK
Take B7: the dissociation constant (Kd) in [2] was 1.17 nM; in [5], roughly 1 nM; in [3], roughly 0.5 nM; in test [4], 0.526 nM. For the same molecule, the “fold improvement in affinity compared to the parental VH5/VL1 FAB” value is roughly 30 fold in test [5] and roughly 40 fold in test [3]. Besides, the “fold improvement in KD value over the first pair of FAB constructs” value in [3] is 2 fold.

B8: VH5/VL1 L1-G29A FAB (Fab, V domains shown)
VH: EVQLVESGGGLVQPGGSLRLSCAASGFSFSDYYMYWVRQAPGKGLEWVSYITNGGITYYPDSVKGRFTISRDNSKNTLYLQMNSLRAEDTAVYYCTSPLRGAWFAYWGQGTLVTVSS
VL: DVVMTQSPLSLPVTLGQPASISCRSSQSIVHSNANTYLEWYQQRPGQSPRLLIYKVSNRFSGVPDRFSGSGSGTDFTLKISRVEAEDVGVYYCFQGSHVPLTFGQGTKLEIK
notes: VH5/VL1 FAB fragment with G29A in CDR-L1
Turning to B8, in test [1], the binding result is on record as “binds”.

B9: 4H11 VH5/VL1 IgG1 antibody (antibody, V domains shown)
VH: EVQLVESGGGLVQPGGSLRLSCAASGFSFSDYYMYWVRQAPGKGLEWVSYITNGGITYYPDSVKGRFTISRDNSKNTLYLQMNSLRAEDTAVYYCTSPLRGAWFAYWGQGTLVTVSS
VL: DVVMTQSPLSLPVTLGQPASISCRSSQSIVHSNGNTYLEWYQQRPGQSPRLLIYKVSNRFSGVPDRFSGSGSGTDFTLKISRVEAEDVGVYYCFQGSHVPLTFGQGTKLEIKR
notes: also called H5/L1; VH5/VL1 antibody
A word on the EC50 (read off the curve): it is the concentration needed to bring the measured effect to its halfway point. For the molecule B9, the “EC50 (read off the curve)” value in [6] is roughly 0.2 µg/mL; in test [7], roughly 0.07 µg/mL.

B10: VH5/VL1-L3-G8 scFv variant (scFv)
scFv: EVQLVESGGGLVQPGGSLRLSCAASGFSFSDYYMYWVRQAPGKGLEWVSYITNGGITYYPDSVKGRFTISRDNSKNTLYLQMNSLRAEDTAVYYCTSPLRGAWFAYWGQGTLVTVSSGGGGSGGGGSGGGGSTDVVMTQSPLSLPVTLGQPASISCRSSQSIVHSNGNTYLEWYQQRPGQSPRLLIYKVSNRFSGVPDRFSGSGSGTDFTLKISRVEAEDVGVYYCFQGTYLPLTFGQGTKLEIK
For B10, the binding result in test [8] is listed as “binds”.

B11: 4H11 (antibody, V domains shown)
VH: EVKLVESGGGLVQPGGSLKLSCATSGFSFSDYYMYWIRQTPEKRLEWVAYITNGGITYYPDTVKGRFTISRDNAKNTLYLQMSRLRSEDTAMYYCTSPLRGAWFAYWGQGTLVTVSS
VL: DVIMTQSPLSLPVSLGDQASISCRSSQSIVHSNGNTYLEWYLQKPGQSPKLLIYKVSNRFSGVPDRFSGSGSGTDFTLKISRVEAEDLGLYYCFQGSHVPLTFGAGTKLEIK
notes: parent of the chimeric 4H11 antibody m1; also called murine antibody 4H11; hybridoma clone 4H11
On to B11, for which, in the test with human CCR6, the binding result is listed as “binds”.
